Holding throughout (test): SPR
Test [1] deals with T1, ActRIIa extracellular domain, C-terminal Fc-tagged chimera (UniProt P27037 20-135).
Test [2] deals with T2, BMPRII extracellular domain, C-terminal Fc-tagged chimera (UniProt Q13873 27-150).
T2 chain: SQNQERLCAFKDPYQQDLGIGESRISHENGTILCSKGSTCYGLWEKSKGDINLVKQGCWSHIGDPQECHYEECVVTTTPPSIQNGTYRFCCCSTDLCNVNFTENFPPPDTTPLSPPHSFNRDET

For test [3], the target named is T3, ALK1 extracellular domain, C-terminal Fc-tagged chimera (UniProt P37023 22-118).
T3 sequence (P37023 22-118, change not shown): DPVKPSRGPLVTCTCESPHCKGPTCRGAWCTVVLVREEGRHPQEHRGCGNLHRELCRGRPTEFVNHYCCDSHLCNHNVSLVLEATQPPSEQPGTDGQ
The target in test [4] is T4, ActRIIb extracellular domain, C-terminal Fc-tagged chimera (UniProt Q13705 19-137).
T4 chain: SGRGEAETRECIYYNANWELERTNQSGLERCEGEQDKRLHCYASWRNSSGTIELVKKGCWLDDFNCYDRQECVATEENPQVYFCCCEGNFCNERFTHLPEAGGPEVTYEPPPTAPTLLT

In test [5] the target is T1, ActRIIa extracellular domain, …. The source holds these as a separate data set.
The target in test [6] is T2, BMPRII extracellular domain, C-terminal ….
In test [7] the target is T3, ALK1 extracellular domain, C-terminal …. This is another data set of the same source.
The target of test [8] is T4, ActRIIb extracellular domain, ….

T1 sequence (P27037 20-135, change not shown): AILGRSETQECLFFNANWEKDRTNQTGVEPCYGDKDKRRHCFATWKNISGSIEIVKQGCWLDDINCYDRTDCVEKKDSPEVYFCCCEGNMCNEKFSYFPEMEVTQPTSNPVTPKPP

B1: MB109 (E. coli-derived mature domain of human bone morphogenetic protein-9, refolded functional dimer) (ligand)
chain: MSAGAGSHCQKTSLRVNFEDIGWDSWIIAPKEYEAYECKGGCFFPLADDVTPTKHAIVQTLVHLKFPTKVGKACCVPTKLSPISVLYKDDMGVPTLKYHYEGMSVAECGCR
Turning to B1, the koff in test [1] is 0.0121 s⁻¹; in test [2] it was 0.00153 s⁻¹; in test [3] it was 0.000884 s⁻¹; in test [4] it was 0.00152 s⁻¹. For the same molecule, the Kd came out at 4.27 nM in test [5], 0.33 nM in test [6], 0.209 nM in test [7] and 0.154 nM in test [8].

These data come from paper PMC3936849 (2014).
